Drawing on article PMC6854080, “Increased Mosquito Midgut Infection by Dengue Virus Recruitment of Plasmin Is Blocked by an Endogenous Kazal-type Inhibitor” (iScience, 2019), this text covers Kd for 1 molecule.

The target in this assay is T1, recombinant AaTI (Aedes aegypti Kazal-type serine protease inhibitor) (Aedes aegypti, UniProt Q177W0 23-91).
T1 construct: recombinant protein of 9.85 kDa inclusive of His-tag; also called rAaTI; wild-type rAaTI; source: bacterial system, purified
T1 sequence (looked up): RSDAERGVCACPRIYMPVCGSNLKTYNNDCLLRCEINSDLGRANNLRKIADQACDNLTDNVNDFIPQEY
Kind of assay: BLI; rAaTI-preloaded biosensors immersed into plasmin solutions of different concentrations; association and dissociation curves fitted globally to 1:1 kinetics. Conditions: both partners purified.

B1: human plasmin (enzyme)
chain 1: KVYLSECKTGNGKNYRGTMSKTKNGITCQKWSSTSPHRPRFSPATHPSEGLEENYCRNPDNDPQGPWCYTTDPEKRYDYCDILECEEECMHCSGENYDGKISKTMSGLECQAWDSQSPHAHGYIPSKFPNKNLKKNYCRNPDRELRPWCFTTDPNKRWELCDIPRCTTPPPSSGPTYQCLKGTGENYRGNVAVTVSGHTCQHWSAQTPHTHNRTPENFPCKNLDENYCRNPDGKRAPWCHTTNSQVRWEYCKIPSCDSSPVSTEQLAPTAPPELTPVVQDCYHGDGQSYRGTSSTTTTGKKCQSWSSMTPHRHQKTPENYPNAGLTMNYCRNPDADKGPWCFTTDPSVRWEYCNLKKCSGTEASVVAPPPVVLLPDVETPSEEDCMFGNGKGYRGKRATTVTGTPCQDWAAQEPHRHSIFTPETNPRAGLEKNYCRNPDGDVGGPWCYTTNPRKLYDYCDVPQCAAPSFDCGKPQVEPKKCPGR
chain 2: VVGGCVAHPHSWPWQVSLRTRFGMHFCGGTLISPEWVLTAAHCLEKSPRPSSYKVILGAHQEVNLEPHVQEIEVSRLFLEPTRKDIALLKLSSPAVITDKVIPACLPSPNYVVADRTECFITGWGETQGTFGAGLLKEAQLPVIENKVCNRYEFLNGRVQSTELCAGHLAGGTDSCQGDSGGPLVCFEKDKYILQGVTSWGLGCARPNKPGVYVRVSRFVTWIEGVMRNN
modifications: active two-chain plasmin (Lys-plasmin limits from the UniProt chain features; the paper prints none), heavy and light chains joined by interchain disulfides; natural glycosylation
For the molecule B1, the dissociation constant Kd came out at 62.8 nM.
